The target of experiment [1] is T1, biotinylated CD200R1 (UniProt Q8TD46 29-265, biotin (site not stated)).
T1 construct: CD200R1 (CD200 receptor 1), soluble biotinylated protein; Held on streptavidin Donor beads in the AlphaLISA; also called CD200R1-(biot)
T1 sequence (looked up): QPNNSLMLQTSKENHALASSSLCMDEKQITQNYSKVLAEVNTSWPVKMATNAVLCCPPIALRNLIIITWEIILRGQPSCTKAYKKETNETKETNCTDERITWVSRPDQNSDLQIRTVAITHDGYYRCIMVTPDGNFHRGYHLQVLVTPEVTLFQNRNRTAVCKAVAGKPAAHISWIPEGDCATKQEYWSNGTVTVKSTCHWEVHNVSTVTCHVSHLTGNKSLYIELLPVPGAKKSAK
The experiment in a line: AlphaScreen or HTRF; AlphaLISA; 3 nM CD200R1-(biot) with a dose response (0.1 to 100 nM) of the His-tagged protein; fit 'One site-total' (GraphPad Prism).

For experiment [2], the target named is CD200R1 on human monocytes, MoDCs and MDSCs (human (endogenous in primary monocytes, MoDCs, MDSCs)) (UniProt Q8TD46).
Experiment [3] concerns the target T1, biotinylated CD200R1. The experiment in a line: AlphaScreen or HTRF; AlphaLISA; 3 nM CD200R1-(biot) with a dose response of His-tagged BOC1, its mutants, CD200 or P352 (0.1 to 300 nM by the legend, 0.1 to 100 nM by the table's footnote); fit 'One site-total' (GraphPad Prism).

Experimental findings from publication PMC12401969, “The gut microbiota protein BOC1 exhibits immune checkpoint inhibitor-like activity by inhibiting myeloid-derived suppressor cell differentiation” (Frontiers in Immunology, 2025) are described below.

The term Kd denotes the constant that tells how readily two partners part at equilibrium. The low end stands for tighter binding, the high end for weaker binding.

CD200R1 on human monocytes, MoDCs and MDSCs (human (endogenous in primary monocytes, MoDCs, MDSCs)), sequence (Q8TD46 25-348): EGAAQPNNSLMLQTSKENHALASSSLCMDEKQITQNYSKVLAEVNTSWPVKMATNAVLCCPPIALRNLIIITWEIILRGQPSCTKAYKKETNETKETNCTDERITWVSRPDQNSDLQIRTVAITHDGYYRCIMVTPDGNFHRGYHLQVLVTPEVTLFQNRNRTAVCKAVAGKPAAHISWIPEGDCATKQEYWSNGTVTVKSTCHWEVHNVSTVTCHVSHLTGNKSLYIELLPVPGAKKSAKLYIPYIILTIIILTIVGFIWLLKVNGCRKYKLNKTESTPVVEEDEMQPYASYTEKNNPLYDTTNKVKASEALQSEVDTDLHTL

Take BOC1-His (natural protein): the Kd in experiment [1] and in experiment [3] was 380 pM in each case. Further, the inhibition of the differentiation of human monocytes into MDSCs (rhIL-6 + rhGM-CSF, 7 days; BOC1 at 1, 10, 50 nM), CD14+CD11b+CD33+HLA-DRlow cells by flow cytometry in experiment [2] stood at 90%. Consider BOC1-m1 (Glu19) (natural protein), for which the Kd in experiment [3] worked out at 960 pM. The same measure, in the same setting: the result for BOC1-m2 (Ser34) (natural protein) reads 2780 pM.

B1: CD200-His (ligand, UniProt P41217 31-232, looked up)
chain: QVQVVTQDEREQLYTPASLKCSLQNAQEALIVTWQKKKAVSPENMVTFSENHGVVIQPAYKDKINITQLGLQNSTITFWNITLEDEGCYMCLFNTFGFGKISGTACLTVYVQPIVSLHYKFSEDHLNITCSATARPAPMVFWKVPRSGIENSTVTLSHPNGTTSVTSILHIKDPKNQVGKEVICQVLHLGTVTDFKQTVNKG
notes: CD200 (OX-2), soluble His-tagged protein; Held on anti-6His Acceptor beads in the AlphaLISA; also called His-tagged CD200
Take B1: the Kd is 1560 ± 300 pM in experiment [1] (both partners purified) and 950 ± 270 pM in experiment [3] (both partners purified).
